Data taken from the supplement of paper PMC7877785.
± gives the uncertainty stated by the source.

Experiment: self-splicing fitness, log relative to wild type (ln ratio); higher = more splicing; Tetrahymena group I intron in knt gene, E. coli kanamycin selection, DiMSum; sequences stand for … in CUCUCU…GGAGGGAAAAGUUAUCAGGCAUGCACCUGGUAGCUAGUCUUUAAACCAAUAGAUUGCAUCGGUUUAAAAGGCAAGACCGUCAAAUUGCGGGAAAGGGGUCAACAGCCGUUCAGUACCAAGUCUCAGGGGAAACUUUGAGAUGGCCUUGCAAAGGGUAUGGUAAUAAGCUGACGGACAUGGUCCUAACCACGCAGCCAAGUCCUAAGUCAACAGAUCUUCUGUUGAUAUGGAUGCAGUUCACAGACUAAAUGUCGGUCGGGGAAGAUGUAUUCUUCUCAUAAGAUAUAGUCGGACCUCUCCUUAAUGGGAGCUAGCGGAUGAAGUGAUGCAACACUGGAGCCGCUGGGAACUAAUUUGUAUGCGAAAGUAUAUUGAUUAGUUUUGGAGUACUCGUGGUCG
Method in brief: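 The eight P1ex-region nucleotides of an intron in the knt kanamycin-resistance gene on pET-22b(+) were all randomised and the library put into E. coli BL21(DE3). Six replicate transformations were grown overnight at 37°C or 30°C on LB agar with or without 25 μg/mL kanamycin, together with 100 μg/mL carbenicillin, 50 μM IPTG and 0.2% rhamnose. Colonies were pooled and amplicon-sequenced on an Illumina HiSeq 2500. Fitness from DiMSum is the error-weighted combination of wild-type-normalised replicate fold changes, kanamycin over none.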

Sequence | self-splicing fitness (ln) (30 °C) | self-splicing fitness (ln) (37 °C)
GUACAGCAAUAUUACGAAAA | -1.66 ± 0.19 | -2.31 ± 0.25
GUACAGCAAUAUUACGAAAC | -1.74 ± 0.1 | -0.531 ± 0.12
GUACAGCAAUAUUACGAAAU | -2.34 ± 0.12 | -0.906 ± 0.11
GUACAGCAAUAUUACGAACU | -0.664 ± 0.15 | -1.24 ± 0.2
GUACAGCAAUAUUACGAAUU | -2.29 ± 0.16 | -1.69 ± 0.15
GUACAGCAAUAUUACGACUG | -1.83 ± 0.13 | -1.33 ± 0.14
GUACAGCAAUAUUACGAGUC | -1.88 ± 0.085 | -1.53 ± 0.096
GUACAGCAAUAUUACGAUCU | -0.934 ± 0.087 | -0.527 ± 0.094
GUACAGCAAUAUUACGAUUA | -0.7 ± 0.095 | -0.556 ± 0.1
GUACAGCAAUAUUACGCAGA | – | -2.72 ± 0.2
GUACAGCAAUAUUACGCAUG | -2.26 ± 0.075 | -1.03 ± 0.08
GUACAGCAAUAUUACGCCAC | -1.49 ± 0.39 | –
GUACAGCAAUAUUACGCGUU | -2.61 ± 0.15 | -1.35 ± 0.14
GUACAGCAAUAUUACGGACA | -2.13 ± 0.12 | -1.13 ± 0.1
GUACAGCAAUAUUACGGAGG | -3.92 ± 0.34 | -2.92 ± 0.44
GUACAGCAAUAUUACGGCCG | -1.89 ± 0.1 | -0.534 ± 0.13
GUACAGCAAUAUUACGGGCG | -2.46 ± 0.18 | -1.11 ± 0.15
GUACAGCAAUAUUACGGGUC | -4.33 ± 0.31 | -2.79 ± 0.33
GUACAGCAAUAUUACGGGUG | -2.02 ± 0.098 | -1.67 ± 0.13
GUACAGCAAUAUUACGGGUU | -3.13 ± 0.09 | -2.22 ± 0.099
GUACAGCAAUAUUACGGUGU | -3.2 ± 0.14 | -1.51 ± 0.13
GUACAGCAAUAUUACGGUUU | -0.599 ± 0.044 | -0.0338 ± 0.06
GUACAGCAAUAUUACGUAAG | -1.08 ± 0.096 | -0.465 ± 0.11
GUACAGCAAUAUUACGUAGA | -2.65 ± 0.11 | -1.35 ± 0.14
GUACAGCAAUAUUACGUAGU | -2.84 ± 0.11 | -2.08 ± 0.14

Sequence | self-splicing fitness (ln) (30 °C) | self-splicing fitness (ln) (37 °C)
GUACAGCAAUAUUACGUCCU | -1.4 ± 0.12 | -0.91 ± 0.11
GUACAGCAAUAUUACGUGCU | -3.17 ± 0.18 | -3.14 ± 0.24
GUACAGCAAUAUUACGUGUC | -3.39 ± 0.2 | -2.06 ± 0.2
GUACAGCAAUAUUACGUUGG | -3.39 ± 0.21 | -2.16 ± 0.15
GUAGAGCAAUAUUACGACCU | -1.39 ± 0.15 | -0.95 ± 0.2
GUAGAGCAAUAUUACGACGC | -0.313 ± 0.16 | 0.929 ± 0.22
GUAGAGCAAUAUUACGAGAA | -3.8 ± 0.34 | -1.72 ± 0.47
GUAGAGCAAUAUUACGAUGA | -1.5 ± 0.1 | -0.479 ± 0.12
GUAGAGCAAUAUUACGAUGU | -1.04 ± 0.18 | -0.121 ± 0.19
GUAGAGCAAUAUUACGCCGU | -1.3 ± 0.33 | -0.778 ± 0.45
GUAGAGCAAUAUUACGCGAU | -3.22 ± 0.2 | 0.14 ± 0.16
GUAGAGCAAUAUUACGCGCC | -3.54 ± 0.29 | -1.67 ± 0.38
GUAGAGCAAUAUUACGGAAC | -1.59 ± 0.3 | –
GUAGAGCAAUAUUACGGACU | -1.4 ± 0.18 | -0.459 ± 0.23
GUAGAGCAAUAUUACGGAUU | -2.61 ± 0.24 | -0.513 ± 0.2
GUAGAGCAAUAUUACGGCAA | -2.01 ± 0.13 | -0.535 ± 0.21
GUAGAGCAAUAUUACGGCAC | -0.941 ± 0.4 | –
GUAGAGCAAUAUUACGGCCC | -1.36 ± 0.29 | -0.935 ± 0.32
GUAGAGCAAUAUUACGGGAA | -3.56 ± 0.32 | -2.35 ± 0.26
GUAGAGCAAUAUUACGGGGU | -3.18 ± 0.2 | -2.07 ± 0.15
GUAGAGCAAUAUUACGGGUG | -2.72 ± 0.22 | -2.93 ± 0.28
GUAGAGCAAUAUUACGUACC | -3.88 ± 0.47 | -1.59 ± 0.37
GUAGAGCAAUAUUACGUCCA | -2.45 ± 0.28 | -0.739 ± 0.34
GUAGAGCAAUAUUACGUUCG | -1.08 ± 0.065 | -0.139 ± 0.13
GUAGAGCAAUAUUACGUUGG | -2.16 ± 0.11 | -2.04 ± 0.15

Sequence | self-splicing fitness (ln) (30 °C) | self-splicing fitness (ln) (37 °C)
GUAUAGCAAUAUUACGAGAC | -1.38 ± 0.4 | -1.24 ± 0.47
GUAUAGCAAUAUUACGAGCG | -1.98 ± 0.16 | -1.39 ± 0.14
GUAUAGCAAUAUUACGAUAG | -1.67 ± 0.099 | -0.533 ± 0.1
GUAUAGCAAUAUUACGAUUG | -3.48 ± 0.42 | -1.67 ± 0.3
GUAUAGCAAUAUUACGCCAG | -3.17 ± 0.33 | -1.26 ± 0.29
GUAUAGCAAUAUUACGCUAU | -3.33 ± 0.33 | -1.23 ± 0.28
GUAUAGCAAUAUUACGGAGA | – | -2.57 ± 0.45
GUAUAGCAAUAUUACGGCCC | – | -0.246 ± 0.44
GUAUAGCAAUAUUACGGGAG | – | -1.77 ± 0.35
GUAUAGCAAUAUUACGGGCA | -1.34 ± 0.24 | -1.35 ± 0.25
GUAUAGCAAUAUUACGGGGA | -2.52 ± 0.22 | -2.83 ± 0.38
GUAUAGCAAUAUUACGGUCA | -1.5 ± 0.2 | -0.663 ± 0.18
GUAUAGCAAUAUUACGGUUA | -1.28 ± 0.11 | -0.761 ± 0.098
GUAUAGCAAUAUUACGGUUC | -1.22 ± 0.1 | -0.0871 ± 0.12
GUAUAGCAAUAUUACGGUUU | -0.844 ± 0.089 | -1.29 ± 0.16
GUAUAGCAAUAUUACGUAAC | -1.95 ± 0.36 | -1.98 ± 0.32
GUAUAGCAAUAUUACGUCAA | -2.37 ± 0.37 | -2.86 ± 0.32
GUAUAGCAAUAUUACGUCGC | -3.04 ± 0.25 | -1.65 ± 0.2
GUAUAGCAAUAUUACGUCGU | -2.22 ± 0.12 | -0.949 ± 0.13
GUAUAGCAAUAUUACGUUGG | -3.33 ± 0.31 | -1.12 ± 0.26
GUAUAGCAAUAUUACGUUGU | -2.78 ± 0.26 | -1.72 ± 0.23
GUAUAGCAAUAUUACGUUUC | -3.37 ± 0.25 | -2.36 ± 0.33
GUAUAGCAAUAUUACGUUUG | -4.31 ± 0.46 | -2.11 ± 0.2
GUCAAGCAAUAUUACGACCG | -3.14 ± 0.42 | –
GUCAAGCAAUAUUACGAGGA | -3.75 ± 0.47 | -4.45 ± 0.45

Sequence | self-splicing fitness (ln) (30 °C) | self-splicing fitness (ln) (37 °C)
GUCAAGCAAUAUUACGAUAA | -1.8 ± 0.14 | -1.58 ± 0.15
GUCAAGCAAUAUUACGAUGA | -2.41 ± 0.17 | -1.1 ± 0.11
GUCAAGCAAUAUUACGAUGC | -1.3 ± 0.098 | -0.442 ± 0.11
GUCAAGCAAUAUUACGCAAG | -3.29 ± 0.18 | -2.48 ± 0.18
GUCAAGCAAUAUUACGCACU | -1.71 ± 0.062 | -0.433 ± 0.072
GUCAAGCAAUAUUACGCCUU | -1.61 ± 0.068 | -0.671 ± 0.097
GUCAAGCAAUAUUACGCGAG | -1.83 ± 0.11 | -1.36 ± 0.12
GUCAAGCAAUAUUACGCUCU | -1.58 ± 0.14 | -1.18 ± 0.14
GUCAAGCAAUAUUACGGACU | -4.38 ± 0.39 | -2.72 ± 0.26
GUCAAGCAAUAUUACGGAGC | -2.47 ± 0.46 | –
GUCAAGCAAUAUUACGGCAA | -2.06 ± 0.15 | -1.01 ± 0.094
GUCAAGCAAUAUUACGGCGA | -2.1 ± 0.14 | -0.0443 ± 0.12
GUCAAGCAAUAUUACGGUAU | -1.54 ± 0.075 | -0.662 ± 0.085
GUCAAGCAAUAUUACGUGCC | -4.07 ± 0.2 | -2.73 ± 0.19
GUCAAGCAAUAUUACGUGCU | -3.07 ± 0.13 | -2.7 ± 0.23
GUCAAGCAAUAUUACGUGUU | -2.85 ± 0.089 | -1.35 ± 0.089
GUCCAGCAAUAUUACGAAAA | -1.1 ± 0.2 | -0.701 ± 0.13
GUCCAGCAAUAUUACGAAUU | -0.818 ± 0.078 | 0.257 ± 0.097
GUCCAGCAAUAUUACGACAG | -3.57 ± 0.36 | -1.93 ± 0.41
GUCCAGCAAUAUUACGAGGA | -2.98 ± 0.27 | -2.64 ± 0.3
GUCCAGCAAUAUUACGAGGU | -2.34 ± 0.11 | -1.34 ± 0.13
GUCCAGCAAUAUUACGAGUC | -1.23 ± 0.097 | -0.164 ± 0.098
GUCCAGCAAUAUUACGAGUU | -1.98 ± 0.095 | -1.26 ± 0.091
